The target of assay [1] is T1, human ILT4 expressed on CHO cells (CHO/ILT4 cell line) (human, UniProt Q8N423 22-597).
T1 construct: also called CHO/ILT4+ cells; CHO-expressed ILT4
Kind of assay: cell-based ligand blocking assay: CHO/ILT4 cells pre-incubated with antibody (1-20,000 ng/mL), then biotinylated HLA-G/Fc.

For assay [2], the target named is T2, recombinant human ILT4 antigen chemically coupled to Luminex beads (ILT4/Fc) (human, UniProt Q8N423 22-460).
T2 construct: also called Luminex bead-coupled ILT4/Fc; not shown: Fc part
T2 sequence (Q8N423 other isoform, or with tags, fused parts or gaps): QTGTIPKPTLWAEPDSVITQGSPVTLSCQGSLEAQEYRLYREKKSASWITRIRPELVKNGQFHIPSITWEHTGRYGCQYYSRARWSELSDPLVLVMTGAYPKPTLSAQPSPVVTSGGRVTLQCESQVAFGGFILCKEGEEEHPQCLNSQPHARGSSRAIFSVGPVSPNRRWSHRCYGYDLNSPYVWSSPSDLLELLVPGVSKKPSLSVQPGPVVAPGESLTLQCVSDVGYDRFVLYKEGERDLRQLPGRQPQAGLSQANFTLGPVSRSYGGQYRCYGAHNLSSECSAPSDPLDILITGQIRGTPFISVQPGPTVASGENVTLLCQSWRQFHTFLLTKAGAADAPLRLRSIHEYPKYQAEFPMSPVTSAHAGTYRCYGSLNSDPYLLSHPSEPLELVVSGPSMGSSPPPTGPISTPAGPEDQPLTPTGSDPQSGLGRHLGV
Briefly: Luminex ligand blocking assay: bead-coupled ILT4 pre-incubated with antibody (0.5-9,000 ng/mL), then 50 nM biotinylated HLA-G/Fc.

The target of assay [3] is T3, human ILT3 (two variants) expressed on mouse 3A9 T cells (human, UniProt Q8NHJ6 22-448).
T3 construct: whole, on cells; Two variants were tested
Briefly: flow cytometry on 3A9 T cell transfectants (two ILT3 variants).

The target of assay [4] is T4, ILT4-His (recombinant extracellular domain of human ILT4 fused to a poly-Histidine tag) (human, UniProt Q8N423 22-460).
T4 construct: also called polyhistidine-tagged human ILT4; recombinant histidine tagged, extracellular domain of ILT4; not shown: poly-histidine tag
Briefly: SPR (Biacore T200): mAb captured by human Fc capture on CM5 chip, ILT4-His titrated; 1:1 model; n=2. A general note: Surface plasmon resonance follows binding to a sensor surface in real time, without labels.

Assay [5] addresses T4, ILT4-His (recombinant extracellular …). Kind of assay: SPR; ratio of KD to that of 1E1(G4) (the reference itself).
Assay [6] addresses T5, human LILRA2 expressed on mouse 3A9 T cells (human, UniProt Q8N149 24-483).
T5 construct: whole, on cells
Kind of assay: flow cytometry on 3A9 T cell transfectants. A general note: In flow cytometry, cells or beads pass a laser one at a time.

The target in assay [7] is T6, human LILRA1 expressed on mouse 3A9 T cells (human, UniProt O75019 17-489).
T6 construct: whole, on cells
T6 sequence (O75019 17-489): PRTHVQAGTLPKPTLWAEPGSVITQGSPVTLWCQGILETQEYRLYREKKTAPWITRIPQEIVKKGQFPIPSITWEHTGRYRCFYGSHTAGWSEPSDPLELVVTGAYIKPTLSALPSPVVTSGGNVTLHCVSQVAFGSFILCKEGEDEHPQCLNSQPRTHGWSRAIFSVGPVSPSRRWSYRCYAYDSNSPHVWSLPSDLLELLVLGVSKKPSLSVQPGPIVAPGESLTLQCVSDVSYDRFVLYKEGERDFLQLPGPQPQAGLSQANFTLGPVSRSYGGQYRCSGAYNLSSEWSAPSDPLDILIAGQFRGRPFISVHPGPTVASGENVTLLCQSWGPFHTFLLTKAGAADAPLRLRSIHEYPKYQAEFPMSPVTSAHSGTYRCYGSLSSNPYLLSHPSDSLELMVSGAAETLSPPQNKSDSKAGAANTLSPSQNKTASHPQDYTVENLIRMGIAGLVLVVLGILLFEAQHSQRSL
Briefly: flow cytometry on 3A9 T cell transfectants.

In assay [8] the target is T7, human ILT11 expressed on mouse 3A9 T cells (human, UniProt A6NI73 42-299).
T7 construct: whole, on cells
T7 sequence (A6NI73 42-299): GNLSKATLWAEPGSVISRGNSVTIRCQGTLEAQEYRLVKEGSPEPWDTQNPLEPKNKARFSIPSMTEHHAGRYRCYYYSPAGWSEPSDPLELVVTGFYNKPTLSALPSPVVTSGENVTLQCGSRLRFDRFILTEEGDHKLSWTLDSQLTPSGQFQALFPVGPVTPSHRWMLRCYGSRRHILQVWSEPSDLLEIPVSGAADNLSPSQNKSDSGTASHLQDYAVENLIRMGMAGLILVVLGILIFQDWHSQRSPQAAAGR
Briefly: flow cytometry on 3A9 T cell transfectants.

Assay [9] has as its target T8, human ILT8 expressed on mouse 3A9 T cells (human, UniProt Q6PI73 24-481).
T8 construct: whole, on cells
Briefly: flow cytometry on 3A9 T cell transfectants.

The target in assay [10] is T9, human LILRB5 expressed on mouse 3A9 T cells (human, UniProt O75023 24-590).
T9 construct: whole, on cells
T9 sequence (O75023 24-590): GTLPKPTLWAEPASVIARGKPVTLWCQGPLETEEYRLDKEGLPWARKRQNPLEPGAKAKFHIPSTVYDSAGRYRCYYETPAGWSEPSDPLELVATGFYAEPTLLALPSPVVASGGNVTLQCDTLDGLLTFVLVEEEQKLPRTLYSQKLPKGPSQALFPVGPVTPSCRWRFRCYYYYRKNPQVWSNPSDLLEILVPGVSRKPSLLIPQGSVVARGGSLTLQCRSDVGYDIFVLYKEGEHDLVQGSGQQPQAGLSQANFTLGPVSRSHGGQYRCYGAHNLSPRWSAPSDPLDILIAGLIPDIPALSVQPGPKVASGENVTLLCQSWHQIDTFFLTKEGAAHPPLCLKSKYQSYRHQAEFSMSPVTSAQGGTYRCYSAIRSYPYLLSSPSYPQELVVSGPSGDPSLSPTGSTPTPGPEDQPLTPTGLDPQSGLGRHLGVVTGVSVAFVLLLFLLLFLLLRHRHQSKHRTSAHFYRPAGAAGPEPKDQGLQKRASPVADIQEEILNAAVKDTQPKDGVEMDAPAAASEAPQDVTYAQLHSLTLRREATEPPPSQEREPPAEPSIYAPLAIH
Briefly: flow cytometry on 3A9 T cell transfectants.

Assay [11] concerns the target T10, human ILT2 expressed on mouse 3A9 T cells (human, UniProt Q8NHL6 24-650).
T10 construct: whole, on cells
Kind of assay: flow cytometry on 3A9 T cell transfectants.

Assay [12] deals with T11, human ILT5 expressed on mouse 3A9 T cells (human, UniProt O75022 24-631).
T11 construct: whole, on cells
Briefly: flow cytometry on 3A9 T cell transfectants.

For assay [13], the target named is T12, human ILT7 expressed on mouse 3A9 T cells (human, UniProt P59901 24-499).
T12 construct: whole, on cells
T12 sequence (P59901 24-499): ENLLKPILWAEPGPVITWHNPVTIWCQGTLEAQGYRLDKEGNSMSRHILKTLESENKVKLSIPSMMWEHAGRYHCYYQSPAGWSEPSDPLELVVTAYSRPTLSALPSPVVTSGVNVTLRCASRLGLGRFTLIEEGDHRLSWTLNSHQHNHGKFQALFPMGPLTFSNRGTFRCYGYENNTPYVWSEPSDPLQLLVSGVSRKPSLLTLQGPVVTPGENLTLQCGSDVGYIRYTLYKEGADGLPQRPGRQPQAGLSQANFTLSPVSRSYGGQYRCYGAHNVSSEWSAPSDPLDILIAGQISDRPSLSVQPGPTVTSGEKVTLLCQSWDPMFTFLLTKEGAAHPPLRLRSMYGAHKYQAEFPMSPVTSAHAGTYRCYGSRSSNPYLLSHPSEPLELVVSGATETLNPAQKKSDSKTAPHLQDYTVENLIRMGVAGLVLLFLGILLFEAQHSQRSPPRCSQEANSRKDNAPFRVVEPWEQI
Kind of assay: flow cytometry on 3A9 T cell transfectants.

For orientation: IC50 means the midpoint of a concentration-inhibition curve. What is called Kd is a measure of binding affinity in units of concentration. The term koff denotes a measure of how fast the partners let go of each other.

T1 sequence (Q8N423 other isoform, or with tags, fused parts or gaps): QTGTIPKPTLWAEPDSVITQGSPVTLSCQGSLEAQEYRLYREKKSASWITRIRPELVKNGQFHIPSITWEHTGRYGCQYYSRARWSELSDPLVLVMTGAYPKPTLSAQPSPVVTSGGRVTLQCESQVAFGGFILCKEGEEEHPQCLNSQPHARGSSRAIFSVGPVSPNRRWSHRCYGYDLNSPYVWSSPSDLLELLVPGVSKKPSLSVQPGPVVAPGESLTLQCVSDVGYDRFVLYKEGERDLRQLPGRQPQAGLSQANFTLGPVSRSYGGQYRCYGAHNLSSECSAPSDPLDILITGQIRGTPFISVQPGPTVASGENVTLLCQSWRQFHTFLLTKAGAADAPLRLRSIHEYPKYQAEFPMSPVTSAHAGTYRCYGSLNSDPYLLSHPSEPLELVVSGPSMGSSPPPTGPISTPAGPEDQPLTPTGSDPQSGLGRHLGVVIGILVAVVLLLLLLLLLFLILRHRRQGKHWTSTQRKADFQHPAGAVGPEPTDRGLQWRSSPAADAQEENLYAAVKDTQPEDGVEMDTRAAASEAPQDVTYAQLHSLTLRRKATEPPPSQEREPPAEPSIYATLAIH
T8 sequence (Q6PI73 24-481): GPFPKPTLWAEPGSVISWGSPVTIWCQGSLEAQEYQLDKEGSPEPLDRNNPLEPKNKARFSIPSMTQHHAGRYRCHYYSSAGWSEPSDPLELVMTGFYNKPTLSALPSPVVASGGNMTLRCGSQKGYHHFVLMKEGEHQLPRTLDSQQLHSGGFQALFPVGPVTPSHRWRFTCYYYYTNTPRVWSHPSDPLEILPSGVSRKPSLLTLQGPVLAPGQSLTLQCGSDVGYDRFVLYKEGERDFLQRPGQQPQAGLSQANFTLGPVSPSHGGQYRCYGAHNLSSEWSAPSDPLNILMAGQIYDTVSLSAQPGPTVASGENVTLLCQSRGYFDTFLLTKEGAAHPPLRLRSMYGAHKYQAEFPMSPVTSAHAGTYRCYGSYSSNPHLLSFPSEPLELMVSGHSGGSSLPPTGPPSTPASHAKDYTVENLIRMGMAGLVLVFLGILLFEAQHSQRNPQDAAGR
T10 sequence (Q8NHL6 24-650): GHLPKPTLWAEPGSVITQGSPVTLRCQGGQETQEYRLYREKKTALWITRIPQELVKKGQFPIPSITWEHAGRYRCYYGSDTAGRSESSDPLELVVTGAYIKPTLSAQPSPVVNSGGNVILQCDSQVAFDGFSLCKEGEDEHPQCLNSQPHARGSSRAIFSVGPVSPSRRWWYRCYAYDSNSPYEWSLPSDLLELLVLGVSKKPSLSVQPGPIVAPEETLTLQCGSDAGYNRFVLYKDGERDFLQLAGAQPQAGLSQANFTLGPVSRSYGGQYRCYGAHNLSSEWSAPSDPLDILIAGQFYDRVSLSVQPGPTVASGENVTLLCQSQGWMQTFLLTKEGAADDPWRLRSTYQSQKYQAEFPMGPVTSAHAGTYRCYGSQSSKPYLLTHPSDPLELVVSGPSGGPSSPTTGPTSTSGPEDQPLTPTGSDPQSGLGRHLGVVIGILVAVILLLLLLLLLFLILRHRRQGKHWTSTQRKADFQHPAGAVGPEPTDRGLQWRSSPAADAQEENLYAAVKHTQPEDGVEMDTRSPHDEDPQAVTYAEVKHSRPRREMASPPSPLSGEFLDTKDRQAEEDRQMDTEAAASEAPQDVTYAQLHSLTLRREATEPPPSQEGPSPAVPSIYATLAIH
T5 sequence (Q8N149 24-483): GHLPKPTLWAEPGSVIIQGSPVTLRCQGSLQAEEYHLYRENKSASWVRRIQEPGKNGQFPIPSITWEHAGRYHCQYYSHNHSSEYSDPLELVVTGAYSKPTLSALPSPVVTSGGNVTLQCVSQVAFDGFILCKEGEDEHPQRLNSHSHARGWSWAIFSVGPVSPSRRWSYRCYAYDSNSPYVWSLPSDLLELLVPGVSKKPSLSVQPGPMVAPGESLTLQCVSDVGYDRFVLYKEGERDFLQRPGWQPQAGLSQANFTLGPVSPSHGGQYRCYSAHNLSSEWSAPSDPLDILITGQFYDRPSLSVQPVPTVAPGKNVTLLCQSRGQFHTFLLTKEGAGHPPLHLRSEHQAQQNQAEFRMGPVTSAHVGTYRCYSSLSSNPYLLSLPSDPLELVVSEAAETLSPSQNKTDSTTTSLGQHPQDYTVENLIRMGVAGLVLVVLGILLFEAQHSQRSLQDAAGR

B1: 2C1 (antibody, V domains shown)
VH: EVQLVQSGAEVKKPGASVKVSCKVSGYTLTELSMHWVRQAPGKGLEWMGGFDPEDGETIYAQKFQGRVTMTEDTSTDTAYMELSSLRSEDTAVYYCARAGPLYTIFGVVIIPDNWFDPWGQGTLVTVSS
VL: ESVLTQPPSVSGAPGQRVTISCTGSSSNIGAGYDVHWYQQLPGTAPKLLIYGNSNRPSGVPDRFSGSKSGTSASLAITGLQAEDEADYYCQSYDSSLSGSGVVFGGGTQLIILG
notes: hIgG4 variant in the Luminex and cell assays; also called 2C1 (hIgG4 variant)
On to B1, for which the IC50 in assay [1] amounted to 0.0561 µg/mL; in [2], 0.0102 µg/mL.

B2: 1E1 (hIgG4 variant) (antibody)
heavy: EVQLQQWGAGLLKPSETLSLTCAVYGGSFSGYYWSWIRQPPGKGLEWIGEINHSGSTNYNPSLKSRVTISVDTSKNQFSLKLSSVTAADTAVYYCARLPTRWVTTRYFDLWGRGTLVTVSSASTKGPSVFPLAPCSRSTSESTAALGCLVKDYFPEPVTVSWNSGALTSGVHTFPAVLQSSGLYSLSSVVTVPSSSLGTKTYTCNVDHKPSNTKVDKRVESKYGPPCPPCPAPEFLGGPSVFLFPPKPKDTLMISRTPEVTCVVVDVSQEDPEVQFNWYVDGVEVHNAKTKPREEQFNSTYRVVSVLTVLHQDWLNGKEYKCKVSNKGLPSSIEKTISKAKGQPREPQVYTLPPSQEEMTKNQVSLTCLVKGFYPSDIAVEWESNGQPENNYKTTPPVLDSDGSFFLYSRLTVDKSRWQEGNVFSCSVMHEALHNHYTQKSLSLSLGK
light: ESVLTQPPSVSGAPGQRVTISCTGSSSNIGAGYDVHWYQQLPGTAPKLLIYGNSNRPSGVPDRFSVSKSGASASLAITGLQAEDEADYYCQSFDNSLSAYVFGGGTQLTVLGQPKAAPSVTLFPPSSEELQANKATLVCLISDFYPGAVTVAWKADSSPVKAGVETTTPSKQSNNKYAASSYLSLTPEQWKSHRSYSCQVTHEGSTVEKTVAPTECS
notes: The chain assignment is uncertain
With B2, the IC50 amounted to 0.0984 µg/mL in assay [1] and 0.0192 µg/mL in [2].

B3: 2A6 (antibody, V domains shown)
VH: EVQLVQSGAEVKKPGSSVKVSCKASGGTFSSYAISWVRQAPGQGLEWMGGIIPIFGTANYAQKFQGRVTITADESTSTAYMELSSLRSEDTAVYYCARYFDSSGWYKGGAFDIWGQGTMVTVSS
VL: QSVLTQPSSLSASPGASASLTCTLRSGINVDTYRIHWYQQKPGSPPQYLLRYKSDSDKHQGSGVPSRFSGSKDPSANAGILLISGLQSEDEADYYCAIWYSSTWVFGGGTQLTVLG
notes: hIgG4 variant in the Luminex and cell assays; also called 2A6 (hIgG4 variant)
Regarding B3, the IC50 turned out to be 0.233 µg/mL in assay [1] and 0.0177 µg/mL in assay [2].

B4: 3G7 (antibody, V domains shown)
VH: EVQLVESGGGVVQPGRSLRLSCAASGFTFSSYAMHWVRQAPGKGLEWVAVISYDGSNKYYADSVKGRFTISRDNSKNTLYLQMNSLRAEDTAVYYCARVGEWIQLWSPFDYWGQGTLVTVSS
VL: DIQMTQSPSSVSASVGDRVTITCRASQGISSWLAWYQQKPGKAPKFLIYAASSLQSGVPSKFSGSGSGTDFTLTISSLQPEDFATYYCQQYNSYPPTFGGGTKVEIKR
notes: hIgG4 variant in the Luminex and cell assays; also called 3G7 (hIgG4 variant)
For B4, the IC50 worked out at 0.374 µg/mL in assay [1] and 0.04 µg/mL in assay [2].

B5: 1E1(G4) (antibody, human IgG4 S228P, lambda, V domains shown)
VH: EVQLQQWGAGLLKPSETLSLTCAVYGGSFSGYYWSWIRQPPGKGLEWIGEINHAGSTNYNPSLKSRVTISVDTSKNQFSLKLSSVTAADTAVYYCARLPTRWVTTRYFDLWGRGTLVTVSS
VL: ESVLTQPPSVSGAPGQRVTISCTGSSSNIGAGYDVHWYQQLPGTAPKLLIYGDSNRPSGVPDRFSVSKSGASASLAITGLQAEDEADYYCQSFDNSLSAYVFGGGTQLTVLG
notes: also called 1E1 VH Q1E, S54A/VL Q1E, N53D IgG4 S228P/Lambda
Take B5: the binding result in [3], in assay [6], in [7], in assay [8], in assay [9] and in assay [10] was “no binding (tested: 10 ug/mL)” each time. In addition, the binding result in [11], in [12] and in assay [13] was “no binding (tested: 10 ug/mL)” throughout. The Kd in [4] stood at 17 nM. Moreover, the koff in [4] was 0.009 s⁻¹. Besides, the “KD Ratio” value in assay [5] stood at 1.

Source of the values: patent publication US20220002403A1 (Merck Sharp & Dohme, published 2022).
